Test results published in US20160368985A1.
Substitutions are numbered along the chain they refer to. Names and notes keep the numbering of the source.

T1: soluble human FcRH5 protein fragment (human) (UniProt Q96RD9)
T1 sequence: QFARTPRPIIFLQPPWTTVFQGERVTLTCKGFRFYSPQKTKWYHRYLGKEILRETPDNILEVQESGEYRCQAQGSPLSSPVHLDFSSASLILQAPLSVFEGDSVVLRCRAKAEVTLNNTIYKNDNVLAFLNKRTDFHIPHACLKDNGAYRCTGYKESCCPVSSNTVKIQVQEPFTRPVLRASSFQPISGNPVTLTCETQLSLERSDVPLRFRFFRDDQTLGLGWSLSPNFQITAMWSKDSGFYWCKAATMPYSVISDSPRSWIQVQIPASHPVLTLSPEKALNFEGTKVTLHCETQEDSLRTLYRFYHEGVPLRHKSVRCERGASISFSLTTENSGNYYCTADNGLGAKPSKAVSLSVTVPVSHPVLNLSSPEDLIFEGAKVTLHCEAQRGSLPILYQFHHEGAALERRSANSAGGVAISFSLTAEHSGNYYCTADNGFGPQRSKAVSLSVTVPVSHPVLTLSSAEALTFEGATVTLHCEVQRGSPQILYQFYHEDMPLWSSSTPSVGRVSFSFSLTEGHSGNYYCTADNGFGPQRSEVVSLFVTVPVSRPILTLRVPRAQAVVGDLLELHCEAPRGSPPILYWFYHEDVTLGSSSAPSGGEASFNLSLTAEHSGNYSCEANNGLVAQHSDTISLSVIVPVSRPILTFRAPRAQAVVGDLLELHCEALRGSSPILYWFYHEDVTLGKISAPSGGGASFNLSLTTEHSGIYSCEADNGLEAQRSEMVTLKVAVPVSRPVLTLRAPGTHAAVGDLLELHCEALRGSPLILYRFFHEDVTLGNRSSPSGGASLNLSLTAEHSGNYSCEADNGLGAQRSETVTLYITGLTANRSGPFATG

T2: soluble cynomolgus FcRH5 protein fragment (cynomolgus monkey)
T2 sequence: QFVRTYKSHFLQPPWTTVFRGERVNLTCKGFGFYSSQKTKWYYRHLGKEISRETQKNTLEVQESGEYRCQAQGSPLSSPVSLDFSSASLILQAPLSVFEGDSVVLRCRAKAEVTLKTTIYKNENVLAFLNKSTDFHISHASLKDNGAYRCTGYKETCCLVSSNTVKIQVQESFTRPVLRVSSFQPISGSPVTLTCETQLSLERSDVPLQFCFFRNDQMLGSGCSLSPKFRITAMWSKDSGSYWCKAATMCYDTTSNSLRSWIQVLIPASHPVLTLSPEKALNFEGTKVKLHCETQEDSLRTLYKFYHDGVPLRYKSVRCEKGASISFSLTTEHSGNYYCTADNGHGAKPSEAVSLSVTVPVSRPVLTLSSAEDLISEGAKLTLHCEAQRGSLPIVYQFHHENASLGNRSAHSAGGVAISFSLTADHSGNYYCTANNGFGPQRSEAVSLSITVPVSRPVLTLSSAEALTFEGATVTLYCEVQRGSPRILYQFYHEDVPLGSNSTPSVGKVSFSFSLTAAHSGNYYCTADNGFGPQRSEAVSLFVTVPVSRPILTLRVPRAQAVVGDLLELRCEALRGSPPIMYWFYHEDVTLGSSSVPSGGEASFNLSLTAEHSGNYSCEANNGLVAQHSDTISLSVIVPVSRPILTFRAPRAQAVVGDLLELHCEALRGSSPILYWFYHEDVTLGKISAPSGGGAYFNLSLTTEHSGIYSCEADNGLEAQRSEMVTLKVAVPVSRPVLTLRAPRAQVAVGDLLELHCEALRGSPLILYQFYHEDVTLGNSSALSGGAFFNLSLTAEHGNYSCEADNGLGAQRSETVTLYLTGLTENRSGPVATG

B1: hu1G7.v1 heavy chain W52F + light chain of hu1G7.v1.6 (antibody, part only; not given: hu1G7.v1.6 light chain, V domains shown, part only)
VH: EVQLVESGPGLVKPSETLSLTCTVSGFSLTRFGVHWVRQPPGKGLEWLGVIFRGGSTDYNAAFMSRLTISKDNSKNQVSLKLSSVTAADTAVYYCSNHYYGSSDYALDNWGQGTLVTVSS
B2: hu1G7.v1 heavy chain W52H + light chain of hu1G7.v1.6 (antibody, part only; not given: hu1G7.v1.6 light chain, V domains shown, part only)
VH: B1 VH with F52H
B3: hu1G7.v1 heavy chain M64F + light chain of hu1G7.v1.6 (antibody, part only; not given: hu1G7.v1.6 light chain, V domains shown, part only)
VH: B1 VH with F52W, M64F
B4: hu1G7.v1 heavy chain M64V + light chain of hu1G7.v1.6 (antibody, part only; not given: hu1G7.v1.6 light chain, V domains shown, part only)
VH: B1 VH with F52W, M64V
B5: hu1G7.v1 heavy chain M64I + light chain of hu1G7.v1.6 (antibody, part only; not given: hu1G7.v1.6 light chain, V domains shown, part only)
VH: B1 VH with F52W, M64I
B6: hu1G7.v1 heavy chain W52Y + light chain of hu1G7.v1.6 (antibody, part only; not given: hu1G7.v1.6 light chain, V domains shown, part only)
VH: B1 VH with F52Y
B7: hu1G7.v1 heavy chain W52L + light chain of hu1G7.v1.6 (antibody, part only; not given: hu1G7.v1.6 light chain, V domains shown, part only)
VH: B1 VH with F52L
B8: hu1G7.v93/38E4.v1 TDB (bispecific antibody, V domains shown)
VH 1: B1 VH with L29T, F52W, M64V, S103P
VL 1: DIQMTQSPSSLSASVGDRVTITCKASQDVSNLVVWFQQKPGKAPKLLIYSGSYRYSGVPSRFSGSGSGTDFTLTISSLQPEDFATYYCQQHYSPPYTFGQGTKVEIK
VH 2: EVQLVQSGAEVKKPGASVKVSCKASGFTFTSYYIHWVRQAPGQGLEWIGWIYPENDNTKYNEKFKDRVTITADTSTSTAYLELSSLRSEDTAVYYCARDGYSRYYFDYWGQGTLVTVSS
VL 2: DIVMTQSPDSLAVSLGERATINCKSSQSLLNSRTRKNYLAWYQQKPGQSPKLLIYWTSTRKSGVPDRFSGSGSGTDFTLTISSLQAEDVAVYYCKQSFILRTFGQGTKVEIK
B9: hu1G7.v85/38E4.v1 TDB (bispecific antibody, V domains shown)
VH 1: B1 VH with F52W, M64V
VL 1: B8 VL 1 with S30R
VH 2: B8 VH 2
VL 2: B8 VL 2

Legend:
[1] = biological target: T1, soluble human FcRH5 protein fragment (human); assay: SPR screening, human IgG capture
[2] = biological target: T2, soluble cynomolgus FcRH5 protein fragment (cynomolgus monkey); assay: BIACORE
[3] = biological target: T2, soluble cynomolgus FcRH5 protein fragment (cynomolgus monkey); assay: BIACORE, hIgG capture, 1:1 model, monovalent
[4] = biological target: T2, soluble cynomolgus FcRH5 protein fragment (cynomolgus monkey); assay: SPR, human IgG capture, 1:1 model

| Binder | Kd [1] | other results |
| --- | --- | --- |
| B1 | 81 nM |  |
| B2 | 110 nM |  |
| B3 | 2.6 nM |  |
| B4 | 2.7 nM |  |
| B5 | 2.7 nM |  |
| B6 | 530 nM |  |
| B7 | 250 nM |  |
| B8 |  | Kd [2]: 8.1 nM |
| B9 |  | Kd [3]: 6.76 nM; Kd [2]: 7.8 nM; Kd [4]: 6.8 nM; koff [4]: 0.0008 s⁻¹; kon [4]: 100000 M⁻¹ s⁻¹ |
